Assay results published in PMC2756588.

Assays:
Test in all cases: SPOT array
Abp1, P15891 = target: T1, Abp1, P15891; details: median of control spots 935
T1 sequence (P15891 535-592, looked up): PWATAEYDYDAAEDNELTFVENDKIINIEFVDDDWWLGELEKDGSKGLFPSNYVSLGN

Bbc1, P47068 = target: T2, Bbc1, P47068; details: median of control spots 796
T2 sequence (P47068 1-78, looked up): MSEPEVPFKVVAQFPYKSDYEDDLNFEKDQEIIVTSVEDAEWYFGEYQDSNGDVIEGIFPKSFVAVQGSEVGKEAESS

Bem1-1, P29366 = details: median of control spots 4282
Bem1-1, P29366, sequence (P29366 55-141): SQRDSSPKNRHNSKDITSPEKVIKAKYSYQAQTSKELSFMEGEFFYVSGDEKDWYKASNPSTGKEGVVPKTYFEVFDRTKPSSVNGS

Bem1-2, P29366 = details: median of control spots 4347
Bem1-2, P29366, sequence (P29366 139-227): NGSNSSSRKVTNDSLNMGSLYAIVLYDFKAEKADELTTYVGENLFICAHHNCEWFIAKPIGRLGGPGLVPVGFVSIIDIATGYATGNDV

Boi1, P38041 = target: T3, Boi1, P38041; details: median of control spots 1162
T3 sequence (P38041 1-86, looked up): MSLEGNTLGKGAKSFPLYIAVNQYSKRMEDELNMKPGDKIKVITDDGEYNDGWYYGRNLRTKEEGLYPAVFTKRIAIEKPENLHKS

Boi2, P39969 = target: T4, Boi2, P39969; details: median of control spots 1161
T4 sequence (P39969 32-116, looked up): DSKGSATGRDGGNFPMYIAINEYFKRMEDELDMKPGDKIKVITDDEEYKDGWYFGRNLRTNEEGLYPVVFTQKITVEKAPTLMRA

Bud14, P27637 = target: T5, Bud14, P27637; details: median of control spots 956
T5 sequence (P27637 247-328, looked up): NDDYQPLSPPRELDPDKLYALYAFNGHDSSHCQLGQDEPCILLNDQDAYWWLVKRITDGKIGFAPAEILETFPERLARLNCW

Bzz1-1, P38822 = target: T6, Bzz1-1, P38822; details: median of control spots 4446
T6 sequence (P38822 478-572, looked up): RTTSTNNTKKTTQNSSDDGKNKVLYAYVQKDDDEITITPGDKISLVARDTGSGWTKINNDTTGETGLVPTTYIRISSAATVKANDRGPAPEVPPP

Bzz1-2, P38822 = target: T7, Bzz1-2, P38822; details: median of control spots 4538
T7 sequence (P38822 568-633, looked up): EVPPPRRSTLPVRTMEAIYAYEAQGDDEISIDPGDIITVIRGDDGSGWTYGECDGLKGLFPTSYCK

Cdc25, P04821 = target: T8, Cdc25, P04821; details: median of control spots 969
T8 sequence (P04821 50-136, looked up): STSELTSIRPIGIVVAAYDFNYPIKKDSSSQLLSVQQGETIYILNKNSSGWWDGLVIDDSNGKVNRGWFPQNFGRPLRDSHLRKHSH

Cyk3, Q07533 = target: T9, Cyk3, Q07533; details: median of control spots 1451
T9 sequence (Q07533 1-83, looked up): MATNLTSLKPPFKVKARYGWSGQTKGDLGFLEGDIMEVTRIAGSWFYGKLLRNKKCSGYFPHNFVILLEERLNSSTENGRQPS

Fus1, P11710 = target: T10, Fus1, P11710; details: median of control spots 1200
T10 sequence (P11710 432-512, looked up): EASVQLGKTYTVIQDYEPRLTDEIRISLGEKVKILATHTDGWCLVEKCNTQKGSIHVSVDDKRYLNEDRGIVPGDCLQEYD

GST = details: median of control spots 978
Hof1, Q05080 = target: T11, Hof1, Q05080; details: median of control spots 4086
T11 sequence (Q05080 590-669, looked up): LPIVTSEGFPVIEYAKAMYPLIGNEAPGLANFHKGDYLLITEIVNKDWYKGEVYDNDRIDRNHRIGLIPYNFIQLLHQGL

Hse1, P38753 = target: T12, Hse1, P38753; details: median of control spots 1727
T12 sequence (P38753 208-285, looked up): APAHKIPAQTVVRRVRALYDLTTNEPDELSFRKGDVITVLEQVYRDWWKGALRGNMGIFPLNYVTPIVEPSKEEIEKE

Lsb1, P53281 = target: T13, Lsb1, P53281; details: median of control spots 388
T13 sequence (P53281 45-122, looked up): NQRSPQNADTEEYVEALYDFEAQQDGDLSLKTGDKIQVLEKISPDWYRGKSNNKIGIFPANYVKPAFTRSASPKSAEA

Lsb3, P43603 = target: T14, Lsb3, P43603; details: median of control spots 406
T14 sequence (P43603 385-451, looked up): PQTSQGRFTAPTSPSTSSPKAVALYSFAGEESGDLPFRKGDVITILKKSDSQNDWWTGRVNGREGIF

Lsb4, P32793 = target: T15, Lsb4, P32793; details: median of control spots 397
T15 sequence (P32793 402-468, looked up): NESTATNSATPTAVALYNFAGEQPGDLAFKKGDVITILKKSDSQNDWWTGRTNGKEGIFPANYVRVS

Myo3, P36006 = details: median of control spots 468
Myo5, Q04439 = target: T16, Myo5, Q04439; details: median of control spots 471
T16 sequence (Q04439 1072-1160, looked up): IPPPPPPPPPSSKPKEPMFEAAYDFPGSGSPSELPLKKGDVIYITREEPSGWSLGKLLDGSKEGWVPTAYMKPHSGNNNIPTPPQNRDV

Nbp2, Q12163 = target: T17, Nbp2, Q12163; details: median of control spots 357
T17 sequence (Q12163 103-180, looked up): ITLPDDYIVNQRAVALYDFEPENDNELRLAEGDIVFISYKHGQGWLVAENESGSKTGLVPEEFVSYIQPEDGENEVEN

Pex13, P80667 = target: T18, Pex13, P80667; details: median of control spots 1341
T18 sequence (P80667 295-386, looked up): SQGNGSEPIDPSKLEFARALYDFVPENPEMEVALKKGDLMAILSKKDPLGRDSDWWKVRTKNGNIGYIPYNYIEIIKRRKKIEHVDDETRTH

Pin3, Q06449 = target: T19, Pin3, Q06449; details: median of control spots 2171
T19 sequence (Q06449 53-122, looked up): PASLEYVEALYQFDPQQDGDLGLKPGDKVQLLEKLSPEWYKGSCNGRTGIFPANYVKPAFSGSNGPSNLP

Rvs167, P39743 = details: median of control spots 2707
Rvs167, P39743, sequence (P39743 419-482): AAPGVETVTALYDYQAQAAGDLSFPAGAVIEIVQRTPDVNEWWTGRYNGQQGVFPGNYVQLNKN

Sho1, P40073 = details: median of control spots 1148
Sho1, P40073, sequence (P40073 287-367): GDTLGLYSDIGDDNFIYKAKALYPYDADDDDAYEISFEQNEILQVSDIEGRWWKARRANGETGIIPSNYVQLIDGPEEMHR

Sla1-2, P32790 = target: T20, Sla1-2, P32790; details: median of control spots 712
T20 sequence (P32790 60-140, looked up): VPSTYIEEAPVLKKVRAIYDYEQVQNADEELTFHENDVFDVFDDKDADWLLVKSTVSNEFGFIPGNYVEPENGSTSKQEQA

Sla1-3, P32790 = target: T21, Sla1-3, P32790; details: median of control spots 5475
T21 sequence (P32790 344-424, looked up): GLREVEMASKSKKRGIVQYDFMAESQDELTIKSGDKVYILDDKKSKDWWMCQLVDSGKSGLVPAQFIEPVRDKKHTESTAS

## KNRKNLPTIPIRLSG
Abp1, P15891
  SPOT intensity: 333
Bbc1, P47068
  SPOT intensity: 25
Bem1-1, P29366
  SPOT intensity: 4
Bem1-2, P29366
  SPOT intensity: 16
Boi1, P38041
  SPOT intensity: 3
Boi2, P39969
  SPOT intensity: 2
Bud14, P27637
  SPOT intensity: 3
Bzz1-1, P38822
  SPOT intensity: 0
Bzz1-2, P38822
  SPOT intensity: 4
Cdc25, P04821
  SPOT intensity: 5
Cyk3, Q07533
  SPOT intensity: 1
Fus1, P11710
  SPOT intensity: 24
GST
  SPOT intensity: 0
Hof1, Q05080
  SPOT intensity: 26
Hse1, P38753
  SPOT intensity: 2
Lsb1, P53281
  SPOT intensity: 1220
Lsb3, P43603
  SPOT intensity: 25
Lsb4, P32793
  SPOT intensity: 103
Myo3, P36006
  SPOT intensity: 5
Myo5, Q04439
  SPOT intensity: 1
Nbp2, Q12163
  SPOT intensity: 47
Pex13, P80667
  SPOT intensity: 13
Pin3, Q06449
  SPOT intensity: 15
Rvs167, P39743
  SPOT intensity: 86
Sho1, P40073
  SPOT intensity: 1660
Sla1-2, P32790
  SPOT intensity: 0
Sla1-3, P32790
  SPOT intensity: 55

## TPRLSLPRLPNKHHW
Abp1, P15891
  SPOT intensity: 37
Bbc1, P47068
  SPOT intensity: 2
Bem1-1, P29366
  SPOT intensity: 0
Bem1-2, P29366
  SPOT intensity: 3
Boi1, P38041
  SPOT intensity: 4
Boi2, P39969
  SPOT intensity: 0
Bud14, P27637
  SPOT intensity: 9
Bzz1-1, P38822
  SPOT intensity: 0
Bzz1-2, P38822
  SPOT intensity: 1
Cdc25, P04821
  SPOT intensity: 10
Cyk3, Q07533
  SPOT intensity: 0
Fus1, P11710
  SPOT intensity: 0
GST
  SPOT intensity: 0
Hof1, Q05080
  SPOT intensity: 1600
Hse1, P38753
  SPOT intensity: 30
Lsb1, P53281
  SPOT intensity: 0
Lsb3, P43603
  SPOT intensity: 0
Lsb4, P32793
  SPOT intensity: 0
Myo3, P36006
  SPOT intensity: 0
Myo5, Q04439
  SPOT intensity: 0
Nbp2, Q12163
  SPOT intensity: 0
Pex13, P80667
  SPOT intensity: 45
Pin3, Q06449
  SPOT intensity: 7
Rvs167, P39743
  SPOT intensity: 2
Sho1, P40073
  SPOT intensity: 35
Sla1-2, P32790
  SPOT intensity: 0
Sla1-3, P32790
  SPOT intensity: 0

## SRSKPLPLTPNSKYN
Abp1, P15891
  SPOT intensity: 109
Bbc1, P47068
  SPOT intensity: 5
Bem1-1, P29366
  SPOT intensity: 0
Bem1-2, P29366
  SPOT intensity: 1
Boi1, P38041
  SPOT intensity: 2
Boi2, P39969
  SPOT intensity: 0
Bud14, P27637
  SPOT intensity: 5
Bzz1-1, P38822
  SPOT intensity: 2
Bzz1-2, P38822
  SPOT intensity: 4
Cdc25, P04821
  SPOT intensity: 2
Cyk3, Q07533
  SPOT intensity: 1
Fus1, P11710
  SPOT intensity: 0
GST
  SPOT intensity: 0
Hof1, Q05080
  SPOT intensity: 0
Hse1, P38753
  SPOT intensity: 1
Lsb1, P53281
  SPOT intensity: 0
Lsb3, P43603
  SPOT intensity: 0
Lsb4, P32793
  SPOT intensity: 2
Myo3, P36006
  SPOT intensity: 0
Myo5, Q04439
  SPOT intensity: 0
Nbp2, Q12163
  SPOT intensity: 0
Pex13, P80667
  SPOT intensity: 21
Pin3, Q06449
  SPOT intensity: 19
Rvs167, P39743
  SPOT intensity: 1
Sho1, P40073
  SPOT intensity: 1030
Sla1-2, P32790
  SPOT intensity: 3
Sla1-3, P32790
  SPOT intensity: 7
